In patent US9090686B2, “Antibodies for the treatment of HIV” (Pierre Fabre Medicament, priority 2009, dated 2015):

Columns and labels:
Format in all cases: cell-based
X4 HIV-1 LAI virus = assay: GHOST cells expressing CD4 and CXCR4 infected with X4 HIV-1 LAI virus
Description: (§1) In order to determine the specificity of CXCR4 515H7 Mab, we evaluated the anti-HIV-1 activity of this Mab using GHOST cells expressing CD4 and CXCR4 or CCR5.
(§2) This assay is performed in 48 h using either the X4 HIV-1 LAI virus (with Ghost cells expressing CXCR4) or the R5 HIV-1 BaL virus (with Ghost cells expressing CCR5). 500 μl of Ghost cells were plated (2.5 10^5 cells/ml) for 24 h in Dulbecco culture medium supplemented with 10% FCS. Various dilutions of Mab 515H7 were incubated for 1 h at 37° C. and then diluted HIV-1 LAI virus ( 1/10) and HIV-1 BaL virus ( 1/7) were added to the cells for 48h. Cells were submitted to trypsin and washed with PBS 1×. 300 μL of 1.5% paraformaldehyde were added to the cell pellets for 2 h at +4° C. in the dark, in order to fix the cells and to inactivate viruses. GFP-positive cells were analyzed by flow cytometry and inhibition of HIV-1 infection was calculated.
(§3) The percent of inhibition of infected cells was defined as […] with control infected wells with no Mab.

R5 HIV-1 BaL virus = assay: GHOST cells expressing CD4 and CCR5 infected with R5 HIV-1 BaL virus
Description: as §1, §2, §3

[1] = test system: HIV-1 primary isolate UG93067 (dual X4/R5 virus); assay: Neutralization assay, multiple rounds of replication on primary PBMC, isolate UG93067
Description: This assay that combines serial dilutions of c515H7 Mab or Maraviroc or combination of both with serial dilutions of virus, analyzes multiple rounds of infection on PBMC (peripheral blood mononuclear cells). Briefly, quadruplicate 25-μl aliquots of serial dilutions (twofold) of c515H7 Mabs or Maraviroc or combination of both were each incubated with 25 μl of serial dilutions of virus in prehydrated 96-well filter plates (1.25-μm pore size, Durapor Dv; Millipore, Molsheim, France). […] On day 7, the presence of p24 in the culture supernatants was measured by ELISA and compared to that of the negative controls (cultures infected with dilutions of virus and maintained in the presence of 10^−6 M zidovudine [AZT]) to determine positive wells. […]
(§4) This assay that combines serial dilutions of hz515H7 Mab or Maraviroc or combination of both with serial dilutions of virus, analyzes multiple rounds of infection on PBMC (peripheral blood mononuclear cells). […] On day 7, the presence of p24 in the culture supernatants was measured by ELISA and compared to that of the negative controls (cultures infected with dilutions of virus and maintained in the presence of 10^−6 M zidovudine [AZT]) to determine positive wells. […]

[2] = test system: HIV-1 primary isolate 89.6 (dual X4/R5 virus); assay: Neutralization assay, multiple rounds of replication on primary PBMC, isolate 89.6; conditions: 90% decrease of viral titer
Description: This assay that combines serial dilutions of c515H7 Mab or Maraviroc or combination of both with serial dilutions of virus, analyzes multiple rounds of infection on PBMC (peripheral blood mononuclear cells). Briefly, quadruplicate 25-μl aliquots of serial dilutions (twofold) of c515H7 Mabs or Maraviroc or combination of both were each incubated with 25 μl of serial dilutions of virus in prehydrated 96-well filter plates (1.25-μm pore size, Durapor Dv; Millipore, Molsheim, France). A control titration of the virus (25 μl of RPMI replacing the diluted c515H7 Mabs or Maraviroc) was performed on the same plate as the titrations in the presence of dilutions of the c515H7 Mabs or Maraviroc or combination of both. After 1 h at 37° C., 25 μl of PHA-stimulated PBMC at a concentration of 4×10^6 cells/ml (pool of PHA activated PBMC from five healthy donors) was added to achieve a 75-μl final culture volume of RPMI, 10% fetal calf serum (FCS), and 20 IU of interleukin-2 (IL-2) per ml (R&D System). After 24 h at 37° C., 100 μl of the same culture medium was added. Two washings (200 μl of RPMI each) were performed by filtration on day 4 to remove the c515H7 Mabs and Maraviroc, and 200 μl of fresh culture medium was added. On day 7, the presence of p24 in the culture supernatants was measured by ELISA and compared to that of the negative controls (cultures infected with dilutions of virus and maintained in the presence of 10^−6 M zidovudine [AZT]) to determine positive wells. […]
as §4

| Molecule | inhibition of HIV-1 X4 Lai virus infection in CXCR4 expressing Ghost cells (in words) (X4 HIV-1 LAI virus) | GHOST CXCR4/LAI virus % inhibition of infected cells 80 (X4 HIV-1 LAI virus; IC for 80% inhibition) [µg/mL] | inhibition of HIV-1 R5 BaL virus infection in CCR5 expressing Ghost cells (in words) (R5 HIV-1 BaL virus) | reduction of virus titer by combination of c515H7 and Maraviroc ([1]; 10 μg/ml of each, only the combination reached it) [%] | inhibitory activity of the Mab compared with Maraviroc ([1]; virus UG93067, PBMC) | IC90 of c515H7 with addition of Maraviroc ([2]; Maraviroc at 2 μg/ml added) [µg/mL] | IC90 ([2]; single agent, multiple rounds, day 7 p24 ELISA) [µg/mL] |
| --- | --- | --- | --- | --- | --- | --- | --- |
| 515H7: murine anti-CXCR4 monoclonal antibody; light chain variable domain SEQ ID No. 7, heavy chain variable domain SEQ ID No. 8 (antibody, listed as Mus musculus, V domains shown) VH: EVNLVESGGGLVQPGGSLRLSCATSGFTFTDNYMSWVRQPPGKALEWLGFIRNKANGYTTDYSASVRGRFTISRDNSQSILYLQMNALRAEDSATYYCARDVGSNYFDYWGQGTTLTVSS VL: DIVMSQSPSSLAVSAGEKVTMSCKSSQSLFNSRTRKNYLAWYQQKPGQSPKLLIYWASARDSGVPARFTGSGSETYFTLTISRVQAEDLAVYYCMQSFNLRTFGGGTKLEIK | able to inhibit | 0.1 | totally inactive | – | – | – | – |
| c515H7: chimeric antibody 515H7: murine variable domains fused to human Ckappa and IgG1/IgG2/IgG4 constant domains; isotype tested not stated (antibody, V domains shown) VH: EVNLVESGGGLVQPGGSLRLSCATSGFTFTDNYMSWVRQPPGKALEWLGFIRNKANGYTTDYSASVRGRFTISRDNSQSILYLQMNALRAEDSATYYCARDVGSNYFDYWGQGTTLTVSS VL: DIVMSQSPSSLAVSAGEKVTMSCKSSQSLFNSRTRKNYLAWYQQKPGQSPKLLIYWASARDSGVPARFTGSGSETYFTLTISRVQAEDLAVYYCMQSFNLRTFGGGTKLEIK | – | – | – | 90 | similar | 0.2 | 2 |
